The data set in a line: label from the status in PepcDB records.
As to “KSVFPFSNVLKQTLLKRATVFLGVPAIYTAMSKAKIPWYFRWFNRIRLFISGGAPLAEQTILDFKAKFPRAKLLEGYGLSEASPVVAVNTPERQKARSVGIPLPGLEAKAVDEELVEVPRGEVGELIVRGGSVMRGYLNMPAATDETIVNGWLKTGDFVTIDEDGFIFIVDRKKDLIISKGQNVYPREIEEEIYKLDAVEAAAVIGVKDRYADEEIVAFVQLKEGMDLGENEIRRHLRTVLANFKIPKQIHFKDGLPRNATGKVLKRVLKEQFDGNK”, the protein production result is listed as “failed”.
Next, “QEIKRYADEHEERYGRFPKTLIFAVQDLANSSSHADQIVDQARDIFGRGDSFVQKITGKVDRPLQRIREFRNRKEPGIAVTVDLLSTGVDVPDIEYIVFLRSMKSRILFEQMIGRGTRKGEH”: “failed”.
Then “MFRIKQLAWAMGCVSLMSGCTLYPWYQNKAGQAVNVKPVMEVRHAIRSADALYQLGRYYQAKVDYAEAIAAYEKALEADPRHVEAHNGLGVAHCLLDRHELALQYFRKAIGMAPLAAHLHNNLGYAHLVHGQEAEAVSAFERALLLEPHNQRARRHLAAVYKKAGLHDKAAALTVAPSGAPVGATKAPPTAPIPTPAPGTPAGTPAGIPSAAISAISPPMAAAPGEKQKLSCSAAARLLQVTPGVFEFRMAETEAMTAMPSGKIIGRTAPPQDSGKFSGQDIRIEVSNGNGLPGMARQVSDFLQQNGFARARLTDRQPYQQALTEIHYRPGHSGVAEEISRLMPGGSGVPTVESYNLRRDIHVRVMLGKDAVRQVAHLESPQKVQIAQGTAGAVE”, with “failed”.
Next, “MASYHVSHDSYQSPGPSPLYQPIIEAPPPPYPPTRTRYQDYYGGYGQPHPPPLRPYRSDHEYYGDGEYVGCFPFLRSCLTTLCCCWFVEQCCFRSRY”: “not failed”; “MKPRGICFFDMDGTLLNSESKVLDTSLQALDKLRENNVIPVIATGRTLIEISHQMKITGIESAVMMNGQMAIFEGEKVYEDVIDADLLDRLTEEAKSQNVEVCYYNDKRIGATASTPVVKAHYDFLGEPMPKVRPNMYKEETINMALLLLETGDDYFPERFPELQFVRNTPFSNDVLRKGGSKAVGISKLLEVMGYQDVPTYAFGDGMNDLEMFGAVDYAIAMENAVPLLKEKADFVTKDNNSDGIMLGLKQFDLI”: “failed”.
For the sequence “MSDPSAKPLQEHILIILDDAGRREVLLTETFYTIGRSPRADIRIKSQFVSRIHAVLVRKSSDDVQAAYRIIDGDEDGQSSVNGLMINGKKVQEHIIQTGDEIVMGPQVSVRYEYRRRDQFGTMPGNEQFDITLIDPGMIDDEEEIPTSVSSSPPEME”, the protein production result is “failed”.
In the case of “MADQLIEEVKQLIIDALRIEGMTPAEIDTDAPLFGEGLGLDSIDALQLVVAMEKQYGVVVPDAATGTKVFQSVRTVADFVAENRKLEHHHHHH”, the protein production entry is recorded as “failed”.
With “MIYQVDGKTIVLVLEQGEDIVEAVTDIAREQNGKFGTVSGIGACSSAELNFYNLETQTYEKKLIDEPLELIGLMGNISHIDEQPFAHLHATFGTNQYETLSGHLTKAVVSATAEIIITMTNLDINRKHNETIGLNLLDLLEHHHHHH”, the protein production result is recorded as “not failed”.
With “MSDAEQPAESETHDHHDHDHEGPGYATPQAAIEAAEPEQTAYVMGLHVGQDVDAPDFLAVVDLDPDSDTYSEIINRVQMPNKGDELHHFGWNACSSSCHMDGLERRHLVIPGQRSSRIHIVDTKERRDPELTKVIEPEEVYEHDLSAPHTVHCIPDGEILISMLGDADGDLPGGFLELNDDFEVQGRWDPPGEIEMNYDYWYQPRQNVMLSTEWAAPKTYYPGFDLDDVEDGKYGQRLNFWDWEDGVIEQTIDLGEDGLIPLEARFLHTPESTHGYVGAALSSNIIHFHESDGRYHAEPVIEFDDREHEGWDMPVPALVTDILISMDDRYLFGSSWLHGEVWMYDISDPSNPRKADSISIGGYFGDIEQVQGRDIVAGPQMLQLSLDGERLYWTTSLFSSWDNQFFPEEAEKGSVMLKADVDPRTGTMSLDRDFLVDFGDLPEGPARAHEIRWPDGDCTSDVWQ”, the protein production entry is recorded as “failed”.
For “MKNFLETIEDMILIINREGRLLYANTAVPKKLGYPHEELMSMHILTITSAGKMAEGEKILAELFAGKKESLPLSLEKKEGTSIPAKARIWQGKWHNEPCLFAIIKDLSKEERALEHHHHHH”, the protein production entry is on record as “not failed”.
Next, “ILGWVEFTRLEPWGIKTPARIDTGANTSSMSARDINVFKRNGKTWVRFTFDFKKGTAERSIEIERPLVRMVKIKQHDGPSQERPVISMEICLADEIREAEFDLIDRRALNYPVLLGRKALAGYVVVDPARAYLTKAVCGHTKKKKKGSEPADPGQQHE”: “failed”.
As for “MLITVYCVRRDLTEVTFSLQVNPDFELSNFRVLCELESGVPAEEAQIVYMEQLLTDDHCSLGSYGLKDGDMVVLLQKDNVGLRTPGRTP”, the protein production entry is “not failed”.
Next, “MSVFTTKVQSIGPEAELFKEEKMVILFGKDAPDALADYCYNIEVQPVTEAITDKQTLVIDEQTYQITAVGEVVLTNLDTLGHITIKFDGATTPELPGTLYVEEKAIPEITVGTTIT”: “failed”; “MHSGLNPQDIAFLKTIIAFFFLSVFLFKVPVSQKIAYISSTPSKLSVFTQIAICAFLGIFSLFFFETIAYNHGAAANVVVVLMASAAISALFFGRLILKESIYINSLIGTLLAVAGISIISWKGENSLLMLINASIAGTGYGLFSVLVKKFKLNGGLFLTKYLLLFGSVYLAVPFLVNLHAIHFNIDIVLGLIGLAVLPTILGFFCTTKALSYMSAAKVQVTELSEPIFAALMAWVFIHEQPTLSFLYGAIFIISGIFVMNRAPKSN”: “failed”; “MNYNSIPTEIIDTILAELKIGLTLVNNTGKIIYFNQLAGELLGWDNKLPENTILSCHKKENQPKVIEKLNQPAAMEWHKVIKTQNRFIENAYSPINIPDKFMGAMILTKDVTAREESLEKLKKNAETDALTGLYNRNLFHTVIQSYITESKPYGLIMLDISGLKYINDHFGHEEGDRILKEAAEAIRSSIRDTDFAFRFGGDEFLILTSYQEAVLKTIANRIRSKNKIPTENTPAVLNLSLGYATSLEEKNMEAVLSSADQRMYRDKQLFYLGDGKYFKQ”: “failed”.
Next, “MQEKPAATGKADESAASKELLKLLRKAVAAVSGEDGWASLSNLGSHISKIRPSFDSRNYGYSKLSTLVKNLDIFETRMVPSADKLHTDVFLRLKDGKLEHHHHHH”: “failed”.
Next, “MRGTTDEEDGVMNFSDVLMMSDDVLSSGEVEEDSFGFRFTGNDAPQMLCFGGGNQNDTDLLFSQPSFSPASPLSSRNNACVVNDQSFRSNKKTGSADGHDRVCDPKPGKRCKRDQKKSSLGNAKDDEDTGEVNPTMKVKELRSNGLCLVPLAWTVHVANTNGADLWSSAILSPLTSHTNSEPVEIVEVKSHKDK”: “failed”; “MWKPLLIAVGLLSLVCGAIGVVLPVIPTTPFLLLSAFCFTRSSERLHNYLVSHRIFGEYISNYYNHAMTPQHKFRTLLTLWCGIILSCFLIGATIPWIILPLIATGVSIHIIRLKPRPEATPTASSPEADSGSEPHFADDHKA”: “failed”.
Turning to “KGGVWRNTEDEILKAAVMKYGKNQWSRIASLLHRKSAKQCKARWYEWLDPSIKKTEW”, the protein production entry is “not failed”.
Then “MWNGREYMSEPASPEKKVIIIAGPNGAGKTTFAEEFLPQEAQCLTFINADLIAAGLAPFEPEQAAFRAGRLMLEEIYNHAQRGQNFAFETTLSGRSYARLIPTWQAQSYIVKLFFLQLLSPELAIARVAQRVRAGGHHVPEAIIRRRFAAGLHNLETLYKLIVDEWVCYDNSGNEPVLINKGGKLLEHHHHHH”, with “not failed”.
Next, “MWRSLLLPTCSHALIELHFFSHYCTIMMNQNTQPTNNLKDKKITYNFNKLQKRLRRNVGNAIANFNMIEAGDKVMVCLSGGKDSYTLLDILLNLKLSAPINFDIVAVNLDQKQPGFPEHILPEYLASIGVEYKIVQENTYGIVKEKIPEGKTTCSLCSRLRRGILYRTATELGATKIALGHHRDDMLETLFLNMFYNGKLKSMPPKLISDDAKHIVIRPLAYCKEKDIEKYAEAKQFPIIPCNLCGSQPNLQRQVVKEMLQNWDRQYPGRIETMFSALQNVTPSHLCDTQLFNFKAVKHGEMINGIEGDIAFDKMDIPMTLNIQEEDEKQAYTQNGTIQFKAV”: “failed”.

Values taken from a protein production outcome set (Wang et al. 2014).
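Note: failed if final PepcDB status was selected cloned or expressed and not failed if soluble or beyond.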
